Reference: US10792857B2, “Polymeric microneedles and rapid additive manufacturing of the same” (The University of North Carolina at Chapel Hill, priority 2015, dated 2020)

B1: OVA-647: Fluorescently labeled (Alexa Fluor 647) model vaccine antigen ovalbumin, incorporated into PAA cylinders (protein, UniProt P01012 2-386, looked up)
Ovalbumin: GSIGAASMEFCFDVFKELKVHHANENIFYCPIAIMSALAMVYLGAKDSTRTQINKVVRFDKLPGFGDSIEAQCGTSVNVHSSLRDILNQITKPNDVYSFSLASRLYAEERYPILPEYLQCVKELYRGGLEPINFQTAADQARELINSWVESQTNGIIRNVLQPSSVDSQTAMVLVNAIVFKGLWEKAFKDEDTQAMPFRVTEQESKPVQMMYQIGLFRVASMASEKMKILELPFASGTMSMLVLLPDEVSGLEQLESIINFEKLTEWTSSNVMEERKIKVYLPRMKMEEKYNLTSVLMAMGITDVFSSSANLSGISSAESLKISQAVHAAHAEINEAGREVVGSAEAGVDAASVSEEFRADHPFLFCIKHIATNAVLFFGRCVSP
modifications: Alexa Fluor 647 label
notes: Fluorescently labeled (Alexa Fluor 647) model vaccine antigen ovalbumin, incorporated into PAA cylinders

Legend:
[1] = Insulin release from CLIP fabricated PAA cylinders dissolved in water (sandwich ELISA); assay type: physicochemical
From the text: Insulin (Sigma) was incorporated into test parts with identical dimensions described in FIG. 22A using CLIP and a resin containing 87.1 wt % acrylic acid monomer, 2.52 wt % DPO photo initiator, 10.4 wt % acetic acid, 0.17 wt % human insulin. Resin of an identical composition, excluding the […] insulin, was used as a negative control for insulin incorporation and release. Parts were fabricated using continuous printing on the CLIP7 apparatus (Carbon 3D) with a drawspeed of 100 mm/hr and 14.5 mW/cm2 light intensity. CLIP fabricated PAA parts were dissolved in 2 mL of water and the solution was then centrifuged at 20,000×g for 10 minutes to remove any insoluble material and insulin release was quantified using an sandwich ELIS A method (3A6 anti-insulin coating antibody, 8E2-HRP detection antibody from AbCam) combined with and an insulin standard curve. Insulin was readily detected in dissolved CLIP fabricated PAA cylinders made with insulin containing resin (FIG. 25) with an average of 0.5 unit/mL insulin (1 unit/cylinder), which was close to the theoretical insulin loading levels of 1 unit per cylinder based on PAA cylinder dry weight (20-22 mg). No insulin was detected in the supernatant of dissolved vehicle control cylinders (FIG. 25), validating the specificity of the ELISA-based insulin assay. […]

[2] = value used for insulin loading calculation; cited from earlier work
[3] = OVA-647 release from CLIP fabricated PAA cylinders dissolved in water (fluorescence plate reader); assay type: physicochemical; settings: PAA cylinder from resin with 0.01 wt % OVA-647, dissolved in 2 mL of water, versus vehicle control cylinders
From the text: Fluorescently labeled (Alexa Fluor® 647) model vaccine antigen ovalbumin (referred to as OVA-647) was incorporated into a PAA matrix using CLIP and a resin containing […] (Sigma), 2.3 wt % DPO photo initiator (Sigma), […], 0.01 wt % OVA-647 (Invitrogen). Resin of an identical composition, excluding the 0.01 wt % OVA-647, was used as a negative control for OVA-647 incorporation. The shape of the CLIP fabricated test parts was cylindrical with 3 mm diameter×3 mm height, containing a hollowed out center 1.5 mm diameter (FIG. 22A and FIG. 22B). Parts were fabricated using continuous printing on the CLIP7 apparatus (Carbon 3D) with a drawspeed of 100 mm/hr and 8.4 mW/cm2 light intensity. OVA-647 incorporation into CLIP fabricated PAA parts was confirmed using microscopy (FIG. 22C). The OVA-647 and vehicle control PAA cylinders were dissolved in 2 mL of water and the solution was then centrifuged at 20,000×g for 10 minutes to remove any insoluble material and OVA-647 release was measured using a fluorescence plate reader.
Referring to FIG. 23, vehicle PAA cylinders (containing 8.97 wt % water) or OVA-647 resin ([…] in water) were tested. Each bar represents an independent cylinder dissolved in 2 mL of water and the supernatant was measured for OVA-647 fluorescence. Values were normalized to a standard curve of soluble OVA-647. […]

Molecule	insulin release per cylinder ([1]; PAA cylinder dissolved in 2 mL of water)	insulin release, average concentration in dissolved cylinder solution ([1]; PAA cylinder from resin with 0.17 wt % human insulin, dissolved in 2 mL of water)	max solubility [2]	OVA-647 release (fluorescence in supernatant) [3]
Insulin: Human insulin (Sigma) incorporated into CLIP fabricated PAA cylinders	1 unit/cylinder	0.5 unit/mL	10000 µg/mL	
B1				readily detected above background florescence levels
